± gives the standard deviation.
Assay: protein stability index of a GFP-peptide fusion (GPS, HEK-293T) (PSI 1-6); higher = more stable
[1] = treatment: DMSO, c terminus: a fixed tail appended
[2] = treatment: MLN4924 1 uM, 8 h, c terminus: a fixed tail appended
[3] = treatment: DMSO, c terminus: native
[4] = treatment: MLN4924 1 uM, 8 h, c terminus: native
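Note: 24-mer peptide tiles fused after GFP, lentivirally expressed, FACS-sorted into six equal bins by GFP/DsRed ratio, decoded by Illumina sequencing, PSI is the read-weighted mean bin number.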

| Sequence | protein stability index [1] | protein stability index [2] | protein stability index [3] | protein stability index [4] |
| --- | --- | --- | --- | --- |
| PSSPLRLGSYKAQKTSRSSSIPCS [PPEF2] | 3.86 ± 0.24 | 3.95 ± 0.21 |  |  |
| PSSQLMPVKKQLQGASWELQSLRP [ZNF396] | 3.66 ± 0.34 | 3.78 ± 0.25 |  |  |
| PTPSTPRPTPQDWLHRRAQILEIL [ADAMTS4] | 2.97 ± 0.23 | 2.98 ± 0.25 |  |  |
| PTYSDFCQFRPPVRVNDGGGSHPS [VDR] | 3.9 ± 0.25 | 4.03 ± 0.18 |  |  |
| PVGQEIVIPFKVDTILKYLKDHFS [IQUB] | 2.33 ± 0.73 | 1.95 ± 0.39 |  |  |
| PVLHPSEERAAPVLSCEAATQTER [FAM189A2] | 5.47 ± 0.27 | 5.44 ± 0.13 |  |  |
| PVPPSEGKSRLSPAGEMKPMPLSE [BCL2L13] | 5.13 ± 0.22 | 5.08 ± 0.073 |  |  |
| PVYVSCIAQDTCTTTDHSSNPGPV [SPAG8] | 3.75 ± 0.39 | 3.9 ± 0.33 |  |  |
| PYREDEEGAFGEHGSQGTYSNTKE [MAP2] | 5.66 ± 0.22 | 5.72 ± 0.2 |  |  |
| QAIQMRLVDVACKHLTDTSHGVRN [INTS4] | 2.52 ± 0.4 | 2.52 ± 0.23 |  |  |
| QARKRQEEREKEAAEQAERSQSSI [SMARCE1] | 5.26 ± 0.71 | 5.702 ± 0.038 |  |  |
| QCPGLGPAPTPTPPGRLGAPYSEA [ZBED3] | 4.35 ± 0.15 | 4.25 ± 0.067 |  |  |
| QCSQRMLSFSDALLSIIATVMILP [TMEM175] | 3.25 ± 0.4 | 3.33 ± 0.3 |  |  |
| QDLCCRAIVSCTPVHLIDKLPLPV [RAB40C] | 2.4 ± 0.24 | 2.16 ± 0.18 |  |  |
| QDLIEDLKLARKAYHDPMLKLSIM [NET1] | 2.33 ± 0.38 | 2.46 ± 0.26 |  |  |
| QDRDALHMEGLIVRERILGADNID [FEM1B] | 4.38 ± 0.39 | 4.29 ± 0.28 |  |  |
| QEAAERESKLLRDLSAANEKNLLL [LRRC45] | 4.37 ± 0.14 | 4.19 ± 0.13 |  |  |
| QFRLKEAFDYIKQRRSMVSPNFGF [DUSP5] | 2.19 ± 0.31 | 2.22 ± 0.17 |  |  |
| QGCPGAKKHEFLTSVLDALSTDMV [SMOC2] | 2.68 ± 0.26 | 3.07 ± 0.27 |  |  |
| QGEMDRKCKQVKEKCKEEFVEEIK [ZMYND11] | 4.91 ± 0.32 | 5.43 ± 0.24 |  |  |
| QGITMGCWDMYRHDIDCQWVDITD [LOXL2] | 2.4 ± 0.55 | 2.73 ± 0.42 |  |  |
| QIEEVFISEEIQMSTKESDFLCLL [MIA2] | 2.51 ± 0.42 | 2.49 ± 0.37 |  |  |
| QKVVVTTPLHRDKTPLHQKHAAFV [MYBL2] | 3 ± 0.2 | 3.14 ± 0.32 |  |  |

| Sequence | protein stability index [1] | protein stability index [2] | protein stability index [3] | protein stability index [4] |
| --- | --- | --- | --- | --- |
| QLAAVHLSKSRTDYQPTQAGRLMR [RNF180] | 3.5 ± 0.18 | 3.52 ± 0.26 |  |  |
| QLAEENERLKQEIERLTREVEATR [DDIT3] | 5.4 ± 0.26 | 5.51 ± 0.32 |  |  |
| QLAQDDIDGIQAIYGRSQNPVQPI [MMP1] | 3.69 ± 0.1 | 3.9 ± 0.14 |  |  |
| QLEQVIESQKANQCAVLIYTSGTT [ACSBG2] | 2.52 ± 0.32 | 2.51 ± 0.25 |  |  |
| QLKLDHYRAALRSCSLVLEHQPDN [FKBP8] | 2.93 ± 0.18 | 2.98 ± 0.27 |  |  |
| QLLCPWAPLSGPQALMLPPGSFWG [VENTX] | 2.41 ± 0.62 | 1.73 ± 0.35 |  |  |
| QLPPASRCVLVFEQVRFLMKSYSF [SOAT2] | 2.71 ± 0.67 | 1.95 ± 0.1 |  |  |
| QLQSLCRGLGLGGRRLKSPQAPDP [FANCE] | 3.02 ± 1 | 3.16 ± 0.74 |  |  |
| QLQVPTLRQQCAQVLRNNPDALSD [ELOA2] | 4.24 ± 0.36 | 4.42 ± 0.13 |  |  |
| QLVVMHPTPQVDELDILPIHPPSG [BTBD10] | 3.74 ± 0.1 | 3.75 ± 0.11 |  |  |
| QQCMLEILDTAGTEQFTAMRDLYM [RAP1B] | 2.53 ± 0.25 | 2.6 ± 0.2 |  |  |
| QQQQAMSFAILRIIRLVRVFRIFK [KCNA4] | 2.71 ± 0.24 | 3.01 ± 0.26 |  |  |
| QQRSKDLESRQRSLEQANRSLQLR [TFE3] | 4.76 ± 0.062 | 4.655 ± 0.041 |  |  |
| QQYAAQQYPGNYEQQQILIRQLQE [ACBD3] | 4.07 ± 0.19 | 4.06 ± 0.22 |  |  |
| QSFISWTGDGWEFKLADPDEVARR [ETS2] | 3.58 ± 0.1 | 3.76 ± 0.19 |  |  |
| QSPVSPQPPAITQVHRQGERRREL [SMTNL2] | 5.26 ± 0.14 | 5.12 ± 0.42 |  |  |
| QSRANGVKYPELVLEHSLDREEEA [PCDHGA10] | 5.29 ± 0.12 | 5.31 ± 0.15 |  |  |
| QSTVKCLTVLQRLDVWLSGGNDLC [WDR41] | 2.6 ± 0.63 | 2.32 ± 0.4 |  |  |
| QVANSAFVERVRKRGFEVVYMTEP [HSP90AB1] | 2.49 ± 0.4 | 2.64 ± 0.24 |  |  |
| QVEGLTVQYLGQAPELLGGAEPGT [ADAMTS4] | 4.53 ± 0.51 | 4.87 ± 0.4 |  |  |
| QVGAKGDTANEIGQVLHFENVKDV [SERPINB5] | 4.94 ± 0.37 | 5.19 ± 0.24 |  |  |
| QWNAGEKKLTGGANWQPKVAPATW [SNAP91] | 2.98 ± 0.33 | 3.07 ± 0.14 |  |  |
| QYFTNRLDMSQNVSLVTAELSKDA [SLC29A1] | 4.2 ± 0.21 | 4.25 ± 0.24 |  |  |

| Sequence | protein stability index [1] | protein stability index [2] | protein stability index [3] | protein stability index [4] |
| --- | --- | --- | --- | --- |
| QYMNEGELRVLADTYDSVYLHPNS [HDAC6] | 2.83 ± 0.21 | 3.33 ± 0.52 |  |  |
| RADAHLGSSSVALPKEASDGTGAS [TOR1AIP2] | 5.5 ± 0.24 | 5.33 ± 0.12 |  |  |
| RAEKEACQREKELPAAVHPFHFV [ZBED2] |  |  | 4.87 ± 0.39 | 4.8 ± 0.34 |
| RAGEQRKRSQSMKSYPSSELRNMC [CLCN6] | 4.29 ± 0.078 | 4.37 ± 0.21 |  |  |
| RALEEANTELEVKIRDWYQRQAPG [KRT17] | 3.37 ± 0.16 | 3.58 ± 0.4 |  |  |
| RDFLLDEANGLLPDDKLTLFCEVS [SPOPL] | 3.03 ± 0.2 | 3.08 ± 0.34 |  |  |
| RDPPRPGPSRPAEKPPRPEAKSAQ [GCH1] | 5.33 ± 0.35 | 5.1 ± 0.045 |  |  |
| RDTFYKEQLERIERKNAEMYKLSS [CHCHD6] | 3.5 ± 0.12 | 3.79 ± 0.43 |  |  |
| REEQCAAYNHRTDLFKSFPGPMDW [ADAMTS4] | 3.06 ± 0.45 | 3.1 ± 0.3 |  |  |
| RELLEFTHMYLQSDDEMELEETEP [P3H4] | 4.98 ± 0.18 | 5.15 ± 0.22 |  |  |
| RFEQEAVAVDSNLRVRELQRKVDG [CCDC89] | 4.98 ± 0.28 | 4.9 ± 0.29 |  |  |
| RFPYLCQKNGGGAYLVPYLVLLII [SLC6A17] | 2.64 ± 1.1 | 2.49 ± 0.94 |  |  |
| RFYLLLFSFLGLLALGVSLLCNAI [PTGFR] | 2.4 ± 0.26 | 2.57 ± 0.24 |  |  |
| RGDPAHAGLAELGHRLAQKLQGLE [PBXIP1] | 3.04 ± 0.34 | 3.29 ± 0.32 |  |  |
| RGDRGPGPALAGEPAGSLRELGVW [C2CD2L] | 3.25 ± 0.14 | 3.55 ± 0.27 |  |  |
| RGSVARPTQGPETPRSPEGTTEAA [PXN] | 5.39 ± 0.3 | 5.31 ± 0.17 |  |  |
| RHTLQKLTCEFNNNHESLDEELHL [FBXO39] | 4.38 ± 0.21 | 4.56 ± 0.3 |  |  |
| RISFCADDKTDKRIFTFICKDSES [GULP1] | 3.52 ± 0.47 | 3.47 ± 0.96 |  |  |
| RKKTLVPGPPGSSRPVKGQVVTVH [FKBP8] | 3.53 ± 0.31 | 3.46 ± 0.2 |  |  |
| RKRKKATEAIDSLRKSKRLRNRK [FBXO28] |  |  | 4.97 ± 0.1 | 5.19 ± 0.12 |
| RLEQEIATYRRLLEGEDAHLSSQQ [KRT16] | 3.95 ± 0.097 | 4.21 ± 0.18 |  |  |
| RLLLAESGLSFITFICYVASSASA [CMTM3] | 2.53 ± 0.94 | 2.43 ± 0.77 |  |  |
| RLSGLSSVGHNWRKRMGTRRGRHE [C22orf15] | 4.08 ± 0.23 | 4.14 ± 0.19 |  |  |

| Sequence | protein stability index [1] | protein stability index [2] | protein stability index [3] | protein stability index [4] |
| --- | --- | --- | --- | --- |
| RLVYKFGKNSSGWKEEEVLQSRN [ELF3] |  |  | 2.76 ± 0.35 | 3.21 ± 0.85 |
| RMLSKENKILQVFWEEHKASLGRE [CBY2] | 2.96 ± 0.39 | 3.35 ± 0.074 |  |  |
| RNGGSLADAISENYRIMSYFKEAE [WEE1] | 3.08 ± 0.36 | 3.2 ± 0.28 |  |  |
| RPEITSRAINLLFDIARIERCNQL [ZER1] | 2.47 ± 0.55 | 2.35 ± 0.59 |  |  |
| RPQGPQLRQQQHKQNKQVLGYCLL [DNAJC4] | 2.52 ± 0.22 | 2.38 ± 0.23 |  |  |
| RPQLPQVLQHVRLPLLSPKFLVGT [KLHL20] | 2.8 ± 0.12 | 2.58 ± 0.26 |  |  |
| RQAIFPDTWTLTEEHGLQQERPRP [PXN] | 4.43 ± 0.25 | 4.25 ± 0.28 |  |  |
| RQRLQDISSLPLPQSLKNYLQYQ [SPSB4] |  |  | 3.65 ± 0.074 | 3.65 ± 0.31 |
| RQWTVSDWGPCSGSCGQGRTIRHV [ADAMTSL2] | 2.15 ± 0.23 | 2.826 ± 0.025 |  |  |
| RRCRRCVCALCPVLGAHRGHPVGL [TRIM14] | 2.54 ± 0.33 | 2.59 ± 0.38 |  |  |
| RRFGAVACGVAMELYVFGGVRSRE [GAN] | 3.04 ± 0.79 | 2.26 ± 0.15 |  |  |
| RRLLVKDPKRRMTIAQSLEHSWIK [DAPK3] | 2.67 ± 0.25 | 2.82 ± 0.4 |  |  |
| RRNSSSSMSSRLSIYDNVPGSILY [DLC1] | 2.75 ± 0.2 | 2.87 ± 0.45 |  |  |
| RRQAVAWLVAMHKAAKLLYESRDQ [ZFYVE21] | 2.29 ± 0.54 | 2.36 ± 0.49 |  |  |
| RRSMKRKALFTCPFNGDCRITKDN [VDR] | 3.29 ± 0.45 | 3.48 ± 0.3 |  |  |
| RSLNVFVKEDDKLIFHRHPVAQST [SPSB1] | 3.15 ± 0.18 | 3.36 ± 0.26 |  |  |
| RSQHARKETEFLRLKRTRLGLDDF [STK38L] | 2.95 ± 0.28 | 3.04 ± 0.44 |  |  |
| RSVQNFRFFASSSLHHTSECTQMD [ALDH8A1] | 3.14 ± 0.24 | 3.29 ± 0.33 |  |  |
| RTERVEQAFRAIDRGDYYLEGYRD [PCMTD1] | 3.77 ± 0.17 | 3.82 ± 0.17 |  |  |
| RTIYHMFIAGLCVFIISTLAIDFI [SOAT2] | 3.14 ± 0.56 | 2.96 ± 0.67 |  |  |

— the supplement of paper PMC10567573
